According to PMC12678811:

Experiments:
[1] = molecular target: secretin receptor (SCTR) (mouse (endogenous in mouse jejunal ICC-DMP)) (UniProt Q5FWI2)
[2] = molecular target: secretin receptor (SCTR) (mouse (endogenous in mouse jejunal ICC-DMP)) (UniProt Q5FWI2); remark: listed apart in the source
[3] = molecular target: secretin receptor (SCTR) (mouse (endogenous in mouse jejunal ICC-DMP)) (UniProt Q5FWI2); remark: listed apart in the source

UniProt Q5FWI2, sequence (Q5FWI2 29-447): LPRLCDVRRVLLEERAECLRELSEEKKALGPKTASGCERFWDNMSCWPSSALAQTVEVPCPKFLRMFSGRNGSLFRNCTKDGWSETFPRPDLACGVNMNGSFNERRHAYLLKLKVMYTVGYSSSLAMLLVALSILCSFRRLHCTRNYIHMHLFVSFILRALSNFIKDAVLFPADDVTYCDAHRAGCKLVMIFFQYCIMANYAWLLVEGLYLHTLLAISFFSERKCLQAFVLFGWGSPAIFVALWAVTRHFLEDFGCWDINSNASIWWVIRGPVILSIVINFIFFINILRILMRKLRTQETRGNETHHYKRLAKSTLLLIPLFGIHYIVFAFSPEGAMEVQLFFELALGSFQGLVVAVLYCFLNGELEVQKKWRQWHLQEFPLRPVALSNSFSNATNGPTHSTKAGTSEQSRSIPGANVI

contractions of murine jejunal muscle strips, amplitude, secretin 100 nM with TTX 1 uM [1]: 53.3 % of control
contractions of murine jejunal muscle strips, area under the curve, secretin 100 nM with TTX 1 uM [1]: 46.4 % of control
spontaneous contractions of murine jejunal muscle strips, area under the curve, secretin 100 nM, control conditions [1]: 45.6 % of control
spontaneous contractions of murine jejunal muscle strips, contractile amplitude, secretin 100 nM, control conditions [1]: 61.3 % of control
Ca2+ transients in ICC-DMP (GCaMP6f), area of events, secretin 100 nM with TTX 1 uM [2]: 0.57 μm·s
Ca2+ transients in ICC-DMP (GCaMP6f), spatial spread, secretin 100 nM with TTX 1 uM [2]: 3.1 μm
cAMP level in ICC-DMP, FRET ratio (mTurquoise/Venus) of the CAMPER sensor, secretin 100 nM [3]: 108 % of control
B1: Secretin, human (peptide)
peptide: HSDGTFTSELSRLREGARLQRLLQGLV
